Laboratory results published in US20200384079A1, “Compositions of Fibroblast Growth Factor LIgands and Methods of Treating Patients Undergoing Ischemia-Reperfusion Therapy” (University of Cincinnati, priority 2017, published 2020).
“Also recorded” adds a separate entry of the source.

Experiments:
[1] = test system: in vivo rat model of myocardial infarction; test: In vivo rat ischemia-reperfusion model, infarct size (TTC); parameters: species or system Sprague Dawley rats; conditions: rat, given at reperfusion, no heparin co-therapy
Experimental: CVR-2016-799R1 signaling and the other two sets were to evaluate the pharmacokinetic properties of native FGF1 and modified FGF1 (FGF1^ΔHBS). The first set of experiments was for the ischemia/reperfusion study in which animals were divided into six groups as follows: (1) saline group: saline treatment given intravenously for 10 minutes immediately upon reperfusion, (2) heparin group: heparin, 60 U/kg intravenous (i.v.) bolus, given immediately at reperfusion+12 U/kg/hr i.v. infusion for 120 minutes of reperfusion, (3) FGF1 group: FGF1, 10 μg/kg i.v. infusion, given for 10 minutes immediately at reperfusion, (4) FGF1+heparin: heparin, 60 U/kg bolus, given immediately upon reperfusion followed by FGF1, 10 μg/kg i.v. infusion, given for 10 minutes and 12 U/kg/hr i.v. infusion given for 110 minutes of reperfusion, (5) modified FGF1 (FGF1^ΔHBS) group: FGF1^ΔHBS, 10 μg/kg i.v. infusion, given for 10 minutes, or (6) FGF1^ΔHBS+heparin: heparin, 60 U/kg bolus, given immediately at reperfusion followed by FGF1^ΔHBS, 10 μg/kg i.v. infusion, given for 10 minutes and 12 U/kg/hr i.v. infusion for 110 minutes of reperfusion. All rats were subjected to 30 minutes of regional ischemia and 120 minutes of reperfusion. Drugs were administered at the onset of reperfusion via the jugular vein (FIG. 2A). […] A total of ninety-six rats was completed for the I/R study. Sample size for each group ranged from 9-16 depending on the power analysis. A total of thirty-five rats were excluded from the study based on the lack of cyanosis of the heart or typical elevation of the ST segment in the electrocardiogram during ischemia, and death from malignant arrhythmia. For the biodistribution or FGF1 signaling study, rats were randomly divided into six groups as described above (FIG. 2B). Following drug treatment (immediately following 15 minutes of treatment or 105 minutes post-treatment at the point which mimics the length of time of reperfusion), solid organs and blood (see sections “Tissue collection for exogenous FGF1 biodistribution” and “Cardiac preparation to detect the activation of FGF1 downstream molecules”) were collected. A total of 33 rats were used for biodistribution and FGF1 signaling studies, and 3 rats were excluded due to anesthetic overdose. Also, a total of 8 plasma samples were excluded because of hemolysis. For elimination half-life of native FGF1 and FGF1^ΔHBS, 12 rats were randomly divided into two groups and treated intraperitoneally with either FGF1 form as described in the section “Pharmacokinetic evaluation of exogenous FGF1 or FGF1^ΔHBS ”.
The in vivo I/R model was established by ligating and loosening the left anterior CVR-2016-799R1 descending artery (LAD) previously described by our laboratory. In brief, rats were anesthetized with thiobutabarbital sodium salt hydrate, Inactin® hydrate (100 mg/kg, i.p., Sigma-Aldrich), and intubated and artificially ventilated via a rodent respirator (respiratory rate: 75 strokes/minute; tidal volume: 3 mL; Model 683, Harvard, USA). The heart was exposed through a left thoracotomy and pericardiotomy, and a 6-0 silk suture was placed around the left anterior descending (LAD) coronary artery. After equilibration for 15 minutes, hearts were subjected to 30 minutes of ischemia by ligating the LAD via a snare occluder and reperfusion occurred for 120 minute via loosening the snare occluder. The appearance of cyanosis of the heart and significant ST-segment elevation in the electrocardiogram were used to verify successful ligation.
At the end of the ischemia-reperfusion injury study, the LAD was re-occluded with the suture used previously for the establishment of ischemia. 5% Evans blue dye solution was given via the jugular vein to define the area-at-risk (AAR). Then, the heart was arrested in diastole with 1 mL of 15% potassium chloride, and the animal was euthanized with an anesthetic overdose followed by a bilateral pneumothorax for removal of the heart. […]

FGF receptors = conditions: published data; cited from earlier work
trypsin = test: Susceptibility to proteolytic degradation by trypsin (fluorescence emission); assay type: in vitro ADME
Experimental: Ligand bioavailability (i.e., pharmacokinetic mechanism) can be a significant pharmacological limitation for therapeutic applicability. […] Susceptibility to protease action of FGF1^ΔTS was determined by monitoring changes in fluorescence emission during degradation by trypsin, FGF1^ΔTS (20-fold increase) and FGF2 (7-fold increase) were more resistant to proteolytic degradation than the native FGF1. It remained to be elucidated as to whether these pharmacokinetic mechanisms I.e., bioavailability and/or half-life) were enhanced in vivo as well. Therefore, detection of the bioavailability and half-life of native and thermally stable mutated ligands (FGF^ΔTS) are carried out as follows: […]

B1: FGF1^ΔTS: thermally stable mutant of FGF1 containing Q55P, S62I, and H108G FGF1-stabilizing mutations (protein, UniProt P05230 16-155, looked up, variant Q55P S62I H108G)
Fibroblast growth factor 1: FNLPPGNYKKPKLLYCSNGGHFLRILPDGTVDGTRDRSDPHIQLQLIAESVGEVYIKSTETGQYLAMDTDGLLYGSQTPNEECLFLERLEENGYNTYISKKHAEKNWFVGLKKNGSCKRGPRTHYGQKAILFLPLPVSSD
For B1, the “effect on infarct size (in words)” value [1] is given as “marked reduction in infarct size compared to native FGF1 at the same dose; also recorded: more efficacious in reducing infarct size compared to the same dose of native FGF1”, the “activation of FGF receptors (ERK activation, cell proliferation) (in words)” value (FGF receptors) is given as “greater than the native FGF1” and the “increase in proteolytic resistance compared to native FGF1” value (trypsin) is given as 20 fold.
